The values that follow come from patent US20240270819A1 (ELANCO US, published 2024).

The target of experiment [1] is canine FcRn with a poly-His tag / canine B2M heterodimer complex (canine). As to the kind of experiment: SPR (Biacore T200), pH 6.0; biotinylated FcRn/B2M immobilised, Fc as analyte.
In experiment [2] the target is T1, canine IL4 (Sino Biological Inc, Cat #70021-DNAE-5) (canine, UniProt O77762 25-132).
T1 sequence (looked up): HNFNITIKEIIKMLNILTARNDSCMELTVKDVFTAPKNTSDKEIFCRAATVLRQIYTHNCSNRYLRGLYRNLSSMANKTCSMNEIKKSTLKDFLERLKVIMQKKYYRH
As to the kind of experiment: cell-based or functional assay.

“variant canine IgG-B Fc polypeptide L(23)S” showed an off-rate constant (koff) in experiment [1] of 0.241 s⁻¹.

B1: canine IL4RECD-IL13RECD-IgGB Fc (Fc fusion)
chain: SGSVKVLHEPSCFSDYISTSVCQWKMDHPTNCSAELRLSYQLDFMGSENHTCVPENREDSVCVCSMPIDDAVEADVYQLDLWAGQQLLWSGSFQPSKHVKPRTPGNLTVHPNISHTWLLMWTNPYPTENHLHSELTYMVNVSNDNDPEDFKVYNVTYMGPTLRLAASTLKSGASYSARVRAWAQTYNSTWSDWSPSTTWLNYYEPGGGSGTETQPPVTNLSVSVENLCTVIWTWDPPEGASPNCTLRYFSHFDNKQDKKIAPETHRSKEVPLNERICLQVGSQCSTNESDNPSILVEKCTPPPEGDPESAVTELQCVWHNLSYMKCTWLPGRNTSPDTNYTLYYWHSSLGKILQCEDIYREGQHIGCSFALTNLKDSSFEQHSVQIVVKDNAGKIRPSFNIVPLTSHVKPDPPHIKRLFFQNGNLYVQWKNPQNFYSRCLSYQVEVNNSQTETNDIFYVEEAKCQNSEFEGNLEGTICFMVPGVLPDTLNTVRIRVRTNKLCYEDDKLWSNWSQAMSIGENTDPTPKRENGRVPRPPDCPKCPAPEMLGGPSVFIFPPKPKDTLLIARTPEVTCVVVDLDPEDPEVQISWFVDGKQMQTAKTQPREEQFNGTYRVVSVLPIGHQDWLKGKQFTCKVNNKALPSPIERTISKARGQAHQPSVYVLPPSREELSKNTVSLTCLIKDFFPPDIDVEWQSNGQQEPESKYRTTPPQLDEDGSYFLYSKLSVDKSRWQRGDTFICAVMHEALHNHYTQESLSHSPGK
modifications: Biotinylated when captured on the tips in the sequential binding experiment; secreted from CHO cells, so glycosylated.
As for B1, in experiment [2], the “TF1 cell proliferation assay (CellTiter-Glo luminescence), IC50 by 4 parameter logistic fit” value turned out to be 2 nM.

By koff is commonly meant the first-order rate constant of dissociation.
